# Laboratory results taken from patent US20210388087A1 (Chugai, published 2021).
# T1: Human CD3eg linker (human)
# T1 construct: Single-chain construct; also called recombinant human CD3
# T1 chain: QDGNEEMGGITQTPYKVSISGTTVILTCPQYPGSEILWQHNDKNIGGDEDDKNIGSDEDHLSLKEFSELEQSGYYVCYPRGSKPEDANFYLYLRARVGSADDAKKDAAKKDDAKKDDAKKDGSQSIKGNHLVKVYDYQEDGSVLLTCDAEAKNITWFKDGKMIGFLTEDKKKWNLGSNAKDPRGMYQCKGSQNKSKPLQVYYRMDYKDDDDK
# Target: T1, Human CD3eg linker
# Experiment: SPR; fold vs parent H183/L072
row,Binder,fold change of affinity [fold]
1,"H183/L072 VL R54N (antibody, name in Kabat numbering, V domains shown) VH: QVQLVESGGGLVQPGRSLRLSCAASGFTFSNAWMHWVRQAPGKGLEWVAQIKDKGNAYAAYYAPSVKGRFTISRDDSKNSIYLQMNSLKTEDTAVYYCHYVHYASASTVLPAFGVDAWGQGTTVTVSS VL: DIVMTQSPLSLPVTPGEPASISCQASQELVHMNRNTYLHWYQQKPGQAPRLLIYKVSNNFPGVPDRFSGSGSGTDFTLKISRVEAEDVGVYYCAQGTSVPFTFGQGTKLEIK",1
2,"H183/L072 VL S26R (antibody, name in Kabat numbering, V domains shown) VH: QVQLVESGGGLVQPGRSLRLSCAASGFTFSNAWMHWVRQAPGKGLEWVAQIKDKGNAYAAYYAPSVKGRFTISRDDSKNSIYLQMNSLKTEDTAVYYCHYVHYASASTVLPAFGVDAWGQGTTVTVSS VL: DIVMTQSPLSLPVTPGEPASISCQARQELVHMNRNTYLHWYQQKPGQAPRLLIYKVSNRFPGVPDRFSGSGSGTDFTLKISRVEAEDVGVYYCAQGTSVPFTFGQGTKLEIK",0.5
3,"H183/L072 VL R54W (antibody, name in Kabat numbering, V domains shown) VH: QVQLVESGGGLVQPGRSLRLSCAASGFTFSNAWMHWVRQAPGKGLEWVAQIKDKGNAYAAYYAPSVKGRFTISRDDSKNSIYLQMNSLKTEDTAVYYCHYVHYASASTVLPAFGVDAWGQGTTVTVSS VL: DIVMTQSPLSLPVTPGEPASISCQASQELVHMNRNTYLHWYQQKPGQAPRLLIYKVSNWFPGVPDRFSGSGSGTDFTLKISRVEAEDVGVYYCAQGTSVPFTFGQGTKLEIK",1.4
4,"H183/L072 VL S26G (antibody, name in Kabat numbering, V domains shown) VH: QVQLVESGGGLVQPGRSLRLSCAASGFTFSNAWMHWVRQAPGKGLEWVAQIKDKGNAYAAYYAPSVKGRFTISRDDSKNSIYLQMNSLKTEDTAVYYCHYVHYASASTVLPAFGVDAWGQGTTVTVSS VL: DIVMTQSPLSLPVTPGEPASISCQAGQELVHMNRNTYLHWYQQKPGQAPRLLIYKVSNRFPGVPDRFSGSGSGTDFTLKISRVEAEDVGVYYCAQGTSVPFTFGQGTKLEIK",0.9
5,"H183/L072 VL S26P (antibody, name in Kabat numbering, V domains shown) VH: QVQLVESGGGLVQPGRSLRLSCAASGFTFSNAWMHWVRQAPGKGLEWVAQIKDKGNAYAAYYAPSVKGRFTISRDDSKNSIYLQMNSLKTEDTAVYYCHYVHYASASTVLPAFGVDAWGQGTTVTVSS VL: DIVMTQSPLSLPVTPGEPASISCQAPQELVHMNRNTYLHWYQQKPGQAPRLLIYKVSNRFPGVPDRFSGSGSGTDFTLKISRVEAEDVGVYYCAQGTSVPFTFGQGTKLEIK",0.2
6,"H183/L072 VL R54Q (antibody, name in Kabat numbering, V domains shown) VH: QVQLVESGGGLVQPGRSLRLSCAASGFTFSNAWMHWVRQAPGKGLEWVAQIKDKGNAYAAYYAPSVKGRFTISRDDSKNSIYLQMNSLKTEDTAVYYCHYVHYASASTVLPAFGVDAWGQGTTVTVSS VL: DIVMTQSPLSLPVTPGEPASISCQASQELVHMNRNTYLHWYQQKPGQAPRLLIYKVSNQFPGVPDRFSGSGSGTDFTLKISRVEAEDVGVYYCAQGTSVPFTFGQGTKLEIK",1.2
7,"H183/L072 VL S26F (antibody, name in Kabat numbering, V domains shown) VH: QVQLVESGGGLVQPGRSLRLSCAASGFTFSNAWMHWVRQAPGKGLEWVAQIKDKGNAYAAYYAPSVKGRFTISRDDSKNSIYLQMNSLKTEDTAVYYCHYVHYASASTVLPAFGVDAWGQGTTVTVSS VL: DIVMTQSPLSLPVTPGEPASISCQAFQELVHMNRNTYLHWYQQKPGQAPRLLIYKVSNRFPGVPDRFSGSGSGTDFTLKISRVEAEDVGVYYCAQGTSVPFTFGQGTKLEIK",0.6
8,"H183/L072 VL S26N (antibody, name in Kabat numbering, V domains shown) VH: QVQLVESGGGLVQPGRSLRLSCAASGFTFSNAWMHWVRQAPGKGLEWVAQIKDKGNAYAAYYAPSVKGRFTISRDDSKNSIYLQMNSLKTEDTAVYYCHYVHYASASTVLPAFGVDAWGQGTTVTVSS VL: DIVMTQSPLSLPVTPGEPASISCQANQELVHMNRNTYLHWYQQKPGQAPRLLIYKVSNRFPGVPDRFSGSGSGTDFTLKISRVEAEDVGVYYCAQGTSVPFTFGQGTKLEIK",0.9
9,"H183/L072 VL S26I (antibody, name in Kabat numbering, V domains shown) VH: QVQLVESGGGLVQPGRSLRLSCAASGFTFSNAWMHWVRQAPGKGLEWVAQIKDKGNAYAAYYAPSVKGRFTISRDDSKNSIYLQMNSLKTEDTAVYYCHYVHYASASTVLPAFGVDAWGQGTTVTVSS VL: DIVMTQSPLSLPVTPGEPASISCQAIQELVHMNRNTYLHWYQQKPGQAPRLLIYKVSNRFPGVPDRFSGSGSGTDFTLKISRVEAEDVGVYYCAQGTSVPFTFGQGTKLEIK",0.5
10,"H183/L072 VL S26L (antibody, name in Kabat numbering, V domains shown) VH: QVQLVESGGGLVQPGRSLRLSCAASGFTFSNAWMHWVRQAPGKGLEWVAQIKDKGNAYAAYYAPSVKGRFTISRDDSKNSIYLQMNSLKTEDTAVYYCHYVHYASASTVLPAFGVDAWGQGTTVTVSS VL: DIVMTQSPLSLPVTPGEPASISCQALQELVHMNRNTYLHWYQQKPGQAPRLLIYKVSNRFPGVPDRFSGSGSGTDFTLKISRVEAEDVGVYYCAQGTSVPFTFGQGTKLEIK",0.5
11,"H183/L072 VL R54S (antibody, name in Kabat numbering, V domains shown) VH: QVQLVESGGGLVQPGRSLRLSCAASGFTFSNAWMHWVRQAPGKGLEWVAQIKDKGNAYAAYYAPSVKGRFTISRDDSKNSIYLQMNSLKTEDTAVYYCHYVHYASASTVLPAFGVDAWGQGTTVTVSS VL: DIVMTQSPLSLPVTPGEPASISCQASQELVHMNRNTYLHWYQQKPGQAPRLLIYKVSNSFPGVPDRFSGSGSGTDFTLKISRVEAEDVGVYYCAQGTSVPFTFGQGTKLEIK",1.2
12,"H183/L072 VL S26H (antibody, name in Kabat numbering, V domains shown) VH: QVQLVESGGGLVQPGRSLRLSCAASGFTFSNAWMHWVRQAPGKGLEWVAQIKDKGNAYAAYYAPSVKGRFTISRDDSKNSIYLQMNSLKTEDTAVYYCHYVHYASASTVLPAFGVDAWGQGTTVTVSS VL: DIVMTQSPLSLPVTPGEPASISCQAHQELVHMNRNTYLHWYQQKPGQAPRLLIYKVSNRFPGVPDRFSGSGSGTDFTLKISRVEAEDVGVYYCAQGTSVPFTFGQGTKLEIK",0.4
13,"H183/L072 VL R54V (antibody, name in Kabat numbering, V domains shown) VH: QVQLVESGGGLVQPGRSLRLSCAASGFTFSNAWMHWVRQAPGKGLEWVAQIKDKGNAYAAYYAPSVKGRFTISRDDSKNSIYLQMNSLKTEDTAVYYCHYVHYASASTVLPAFGVDAWGQGTTVTVSS VL: DIVMTQSPLSLPVTPGEPASISCQASQELVHMNRNTYLHWYQQKPGQAPRLLIYKVSNVFPGVPDRFSGSGSGTDFTLKISRVEAEDVGVYYCAQGTSVPFTFGQGTKLEIK",1.1
14,"H183/L072 VL S26K (antibody, name in Kabat numbering, V domains shown) VH: QVQLVESGGGLVQPGRSLRLSCAASGFTFSNAWMHWVRQAPGKGLEWVAQIKDKGNAYAAYYAPSVKGRFTISRDDSKNSIYLQMNSLKTEDTAVYYCHYVHYASASTVLPAFGVDAWGQGTTVTVSS VL: DIVMTQSPLSLPVTPGEPASISCQAKQELVHMNRNTYLHWYQQKPGQAPRLLIYKVSNRFPGVPDRFSGSGSGTDFTLKISRVEAEDVGVYYCAQGTSVPFTFGQGTKLEIK",0.7
15,"H183/L072 VL S26D (antibody, name in Kabat numbering, V domains shown) VH: QVQLVESGGGLVQPGRSLRLSCAASGFTFSNAWMHWVRQAPGKGLEWVAQIKDKGNAYAAYYAPSVKGRFTISRDDSKNSIYLQMNSLKTEDTAVYYCHYVHYASASTVLPAFGVDAWGQGTTVTVSS VL: DIVMTQSPLSLPVTPGEPASISCQADQELVHMNRNTYLHWYQQKPGQAPRLLIYKVSNRFPGVPDRFSGSGSGTDFTLKISRVEAEDVGVYYCAQGTSVPFTFGQGTKLEIK",0.8
16,"H183/L072 VL S26E (antibody, name in Kabat numbering, V domains shown) VH: QVQLVESGGGLVQPGRSLRLSCAASGFTFSNAWMHWVRQAPGKGLEWVAQIKDKGNAYAAYYAPSVKGRFTISRDDSKNSIYLQMNSLKTEDTAVYYCHYVHYASASTVLPAFGVDAWGQGTTVTVSS VL: DIVMTQSPLSLPVTPGEPASISCQAEQELVHMNRNTYLHWYQQKPGQAPRLLIYKVSNRFPGVPDRFSGSGSGTDFTLKISRVEAEDVGVYYCAQGTSVPFTFGQGTKLEIK",0.7
17,"H183/L072 VL R54P (antibody, name in Kabat numbering, V domains shown) VH: QVQLVESGGGLVQPGRSLRLSCAASGFTFSNAWMHWVRQAPGKGLEWVAQIKDKGNAYAAYYAPSVKGRFTISRDDSKNSIYLQMNSLKTEDTAVYYCHYVHYASASTVLPAFGVDAWGQGTTVTVSS VL: DIVMTQSPLSLPVTPGEPASISCQASQELVHMNRNTYLHWYQQKPGQAPRLLIYKVSNPFPGVPDRFSGSGSGTDFTLKISRVEAEDVGVYYCAQGTSVPFTFGQGTKLEIK",0.9
18,"H183/L072 VL S26Q (antibody, name in Kabat numbering, V domains shown) VH: QVQLVESGGGLVQPGRSLRLSCAASGFTFSNAWMHWVRQAPGKGLEWVAQIKDKGNAYAAYYAPSVKGRFTISRDDSKNSIYLQMNSLKTEDTAVYYCHYVHYASASTVLPAFGVDAWGQGTTVTVSS VL: DIVMTQSPLSLPVTPGEPASISCQAQQELVHMNRNTYLHWYQQKPGQAPRLLIYKVSNRFPGVPDRFSGSGSGTDFTLKISRVEAEDVGVYYCAQGTSVPFTFGQGTKLEIK",0.8
19,"H183/L072 VL S26M (antibody, name in Kabat numbering, V domains shown) VH: QVQLVESGGGLVQPGRSLRLSCAASGFTFSNAWMHWVRQAPGKGLEWVAQIKDKGNAYAAYYAPSVKGRFTISRDDSKNSIYLQMNSLKTEDTAVYYCHYVHYASASTVLPAFGVDAWGQGTTVTVSS VL: DIVMTQSPLSLPVTPGEPASISCQAMQELVHMNRNTYLHWYQQKPGQAPRLLIYKVSNRFPGVPDRFSGSGSGTDFTLKISRVEAEDVGVYYCAQGTSVPFTFGQGTKLEIK",0.6
20,"H183/L072 VL R54T (antibody, name in Kabat numbering, V domains shown) VH: QVQLVESGGGLVQPGRSLRLSCAASGFTFSNAWMHWVRQAPGKGLEWVAQIKDKGNAYAAYYAPSVKGRFTISRDDSKNSIYLQMNSLKTEDTAVYYCHYVHYASASTVLPAFGVDAWGQGTTVTVSS VL: DIVMTQSPLSLPVTPGEPASISCQASQELVHMNRNTYLHWYQQKPGQAPRLLIYKVSNTFPGVPDRFSGSGSGTDFTLKISRVEAEDVGVYYCAQGTSVPFTFGQGTKLEIK",0.8
